Source: EP4714972A1

Experiments:
[1] = biological target: CD38 antigen (human-derived CD38 antigen protein) (human) (UniProt P28907); assay: phage ELISA on coated CD38 antigen; control well (PVA) OD 0.18
[2] = biological target: CD38 antigen (human-derived CD38 antigen protein) (human) (UniProt P28907); assay: phage ELISA on coated CD38 antigen; control well (PVA) OD 0.05
[3] = biological target: CD38 antigen (human-derived CD38 antigen protein) (human) (UniProt P28907); assay: phage ELISA on coated CD38 antigen; control well (PVA) OD 0.13
[4] = biological target: CD38 antigen (human-derived CD38 antigen protein) (human) (UniProt P28907); assay: phage ELISA on coated CD38 antigen; control well (PVA) OD 0.04

B1: B1 alpaca antibody (anti-CD38 single-domain antibody) (VHH)
VHH: QVQLVESGGGEVQPGGSLRLSCTASGFRLDYYAIGWFRRAPGKEREGIACIDITGIHTNYGDSVMGRFTISRDDRAVYLQMNNLEAGDTAIYYCAPARFSACSALDVKLSFTSWGQGTQVTVSS
- OD value of the antigen well (Pro) [1]: 0.65 OD

B2: B2 alpaca antibody (anti-CD38 single-domain antibody) (VHH)
VHH: QVQLVESGGGLVQPGGSLTLSCRASGFTLDYYAIGWFRQAPGKEREAIACIDITGFHTNYGDSVSGRFTISRDNAGTTVYLQMNSLEAEDTGIYYCAPARYAACSALDVKLSFTSWGQGTQVTVSS
- OD value of the antigen well (Pro) [1]: 1.07 OD

B3: B3 alpaca antibody (anti-CD38 single-domain antibody) (VHH)
VHH: QVQLVESGGGLVQAGGSLRLACTASGNIFASQVMNWYRQAPGSPRELVATITPGGRTTYADSAKGRFTVATDNAKATAYLQLTSLTPEDTGVYYCHVRLFPATDYWGQGTQVTVSS
- OD value of the antigen well (Pro) [2]: 0.15 OD

B4: B5 alpaca antibody (anti-CD38 single-domain antibody) (VHH)
VHH: QVQLVESGGGLVQPGGSLRLSCTASGFRLDYYAIGWFRQAPGKEREAISCIDITGMHTNYGDSVMGRFTISRDDAKRTVYLQMNSLEAEDTGIYYCAPAQYAACSALGVKVSFTSWGQGTQVTVSP
- OD value of the antigen well (Pro) [3]: 0.89 OD

B5: B8 alpaca antibody (anti-CD38 single-domain antibody) (VHH)
VHH: QVQLVESGGGLVQPGGSLRLSCTASGFRLDYYAIGWFRQAPGKEREAIACIDITGFHTNYGDSVSGRFTISRDNAGTTVYLQMNSLEAEDTGIYYCAPARYAACSALDVKLSFTSWGQGTQVTVSS
- OD value of the antigen well (Pro) [4]: 1.77 OD
